What all share (details): remark: other sources report otherwise
For assay [1], the target named is T1, untagged SARS-CoV-2 RBD expressed in E. coli BL21(DE3) and oxidatively refolded (RBDWT) (SARS-CoV-2), P0DTC2. The experiment in a line: BLI, RBD expressed in E. coli. On the technique in general: In BLI a coated tip is dipped into the sample, and binding shifts an interference pattern.
In assay [2] the target is Mammalian SARS-CoV2 RBD (residues 331-524) with C-terminal 6XHis Tag (SARS-CoV-2), P0DTC2. The experiment in a line: ELISA on coated antigen, anti-human IgG-HRP. In general terms: In an ELISA, binding on a coated surface is turned into a signal by an enzyme label.
Assay [3] deals with bacterially derived SARS-CoV RBD (SARS-CoV), P59594. As to the kind of experiment: BLI, bacterially derived SARS-CoV RBD.
Assay [4] has as its target T1, untagged SARS-CoV-2 RBD expressed in E. …. The experiment in a line: BLI, RBD expressed in E. coli, 1:1 Langmuir fit.

Usually half-life stands for the time needed for the level to fall by half in the phase considered. In general, Kd refers to the concentration at which binding is half-saturated. A higher Kd goes with a looser complex.

B1: mAb 2H04 (antibody)
chain 1: EVQLQQSGAELVKPGASVKMSCKASGYTFTSYWITWVKQRPGQGLEWIGDIYPGSGSTKYNEKFRSEATLTVDTSSTTAYMQLSSLTSEDSAVYYCARWDFYGSRTFDYWGQGTTLTVSS
chain 2: DIVLTQSPAILSVSPGERVSFSCRASQNIGTIIHWYQQRTNGSPRLLIKYASESVSGIPSRFSGSGSGTDFTLSINSVESEDIADYYCQQSSSWPLTFGAGTKLELK
As to B1, the half-life in assay [1] was 76.2 s; in assay [3], 25.8 s. In addition, in assay [2], the minimum positive concentration was < 5 µg/mL. In addition, the Kd in assay [3] stood at 1420 nM; in assay [4], 40 nM.

For the origin of these results see patent publication WO2021212049A2.
